Laboratory results as given in paper PMC9482650, “Quantitative fragmentomics allow affinity mapping of interactomes” (Nature Communications, 2022).

T1: SHANK1, Q9Y566
T1 sequence (Q9Y566 658-767, limits assumed, looked up): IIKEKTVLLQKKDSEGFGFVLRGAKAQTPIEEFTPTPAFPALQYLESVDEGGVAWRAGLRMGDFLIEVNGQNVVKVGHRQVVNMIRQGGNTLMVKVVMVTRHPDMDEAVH

T2: DLG3_1, Q92796
T2 sequence (Q92796 125-227, limits assumed, looked up): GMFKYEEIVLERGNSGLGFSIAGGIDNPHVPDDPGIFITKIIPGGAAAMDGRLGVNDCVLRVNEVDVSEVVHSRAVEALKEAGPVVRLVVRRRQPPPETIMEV

T3: DVL3, Q92997
T3 sequence (Q92997 244-331, limits assumed, looked up): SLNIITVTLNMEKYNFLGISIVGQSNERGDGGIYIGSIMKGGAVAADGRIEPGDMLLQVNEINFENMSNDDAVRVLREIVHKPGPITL

T4: SNTB1, Q13884
T4 sequence (Q13884 107-205, limits assumed, looked up): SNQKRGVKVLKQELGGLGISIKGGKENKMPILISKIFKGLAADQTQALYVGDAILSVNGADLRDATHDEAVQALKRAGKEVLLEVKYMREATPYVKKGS

T5: SYNJ2BP, P57105
T5 sequence (P57105 8-110, limits assumed, looked up): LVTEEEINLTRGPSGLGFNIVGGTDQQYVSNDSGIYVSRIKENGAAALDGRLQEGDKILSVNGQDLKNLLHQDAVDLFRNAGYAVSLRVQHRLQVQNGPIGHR

T6: TJP3_3, O95049
T6 sequence (O95049 375-456, limits assumed, looked up): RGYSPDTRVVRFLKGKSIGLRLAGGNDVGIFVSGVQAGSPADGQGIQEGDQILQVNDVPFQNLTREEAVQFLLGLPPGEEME

T7: APBA2_1, Q99767
T7 sequence (Q99767 563-664, limits assumed, looked up): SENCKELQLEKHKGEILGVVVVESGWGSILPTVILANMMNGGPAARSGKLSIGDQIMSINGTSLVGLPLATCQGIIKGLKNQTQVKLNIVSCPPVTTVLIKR

T8: GRIP1_5, Q9Y3R0
T8 sequence (Q9Y3R0 568-668, limits assumed, looked up): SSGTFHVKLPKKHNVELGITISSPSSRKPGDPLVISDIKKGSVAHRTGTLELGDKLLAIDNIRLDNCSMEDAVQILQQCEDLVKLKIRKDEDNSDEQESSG

T9: FRMPD1, Q5SYB0
T9 sequence (Q5SYB0 52-145, limits assumed, looked up): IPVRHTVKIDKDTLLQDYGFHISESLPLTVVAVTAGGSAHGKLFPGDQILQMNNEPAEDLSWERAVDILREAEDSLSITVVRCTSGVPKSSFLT

T10: APBA3_1, O96018
T10 sequence (O96018 389-490, limits assumed, looked up): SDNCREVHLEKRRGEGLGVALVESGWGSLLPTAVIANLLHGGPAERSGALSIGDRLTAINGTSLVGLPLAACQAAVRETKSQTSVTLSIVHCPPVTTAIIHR

T11: ARHGAP21, Q5T5U3
T11 sequence (Q5T5U3 45-169, limits assumed, looked up): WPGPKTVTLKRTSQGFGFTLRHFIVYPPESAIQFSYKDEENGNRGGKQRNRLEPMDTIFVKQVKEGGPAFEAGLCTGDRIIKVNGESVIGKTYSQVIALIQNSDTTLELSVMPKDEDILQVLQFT

T12: PDZD7_3, Q9H5P4
T12 sequence (Q9H5P4 857-944, limits assumed, looked up): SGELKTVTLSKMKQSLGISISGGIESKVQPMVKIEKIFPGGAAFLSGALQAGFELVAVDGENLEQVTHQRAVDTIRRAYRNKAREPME

T13: DLG3_2, Q92796
T13 sequence (Q92796 221-321, limits assumed, looked up): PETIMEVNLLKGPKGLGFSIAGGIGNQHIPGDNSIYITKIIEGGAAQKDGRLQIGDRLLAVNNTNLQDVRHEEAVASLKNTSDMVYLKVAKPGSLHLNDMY


These binders were tested against GRID2IP_2, A4D2P6 (assay: holdup assay). Settings: plain residues with an end cap or a label only (N-terminal biotin on a linker: ado-ado).
Sequence of GRID2IP_2, A4D2P6 (A4D2P6 272-370): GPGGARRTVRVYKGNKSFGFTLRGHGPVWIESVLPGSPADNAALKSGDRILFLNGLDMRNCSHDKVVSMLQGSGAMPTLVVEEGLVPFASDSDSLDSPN
Design: key: below the threshold = too weak to quantify, mostly under pKd 3.1 to 4

pKd	Binder
below the threshold	QKASRNESTF [POLR1D, P0DPB6]
below the threshold	DSEEELPTRL [GRK6, P43250]
below the threshold	MQILSKPEFI [NPSR1, Q6W5P4]

What follows are binders tested against T1, SHANK1, Q9Y566 (assay: holdup assay). Settings: plain residues with an end cap or a label only (N-terminal biotin on a linker: ado-ado).
Design: key: below the threshold = too weak to quantify, mostly under pKd 3.1 to 4

pKd	Binder
below the threshold	QKASRNESTF [POLR1D, P0DPB6]
4.71	DSEEELPTRL [GRK6, P43250]
below the threshold	MQILSKPEFI [NPSR1, Q6W5P4]

What follows are binders tested against MAGI2_5, Q86UL8 (assay: holdup assay). Settings: plain residues with an end cap or a label only (N-terminal biotin on a linker: ado-ado).
Sequence of MAGI2_5, Q86UL8 (Q86UL8 915-1017): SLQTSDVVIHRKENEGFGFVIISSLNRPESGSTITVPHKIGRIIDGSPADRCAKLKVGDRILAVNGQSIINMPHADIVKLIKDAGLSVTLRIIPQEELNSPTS
Design: key: below the threshold = too weak to quantify, mostly under pKd 3.1 to 4

pKd	Binder
below the threshold	QKASRNESTF [POLR1D, P0DPB6]
below the threshold	DSEEELPTRL [GRK6, P43250]
below the threshold	MQILSKPEFI [NPSR1, Q6W5P4]

What follows are binders tested against HTRA1, Q92743 (assay: holdup assay). Settings: plain residues with an end cap or a label only (N-terminal biotin on a linker: ado-ado).
Sequence of HTRA1, Q92743 (Q92743 360-477): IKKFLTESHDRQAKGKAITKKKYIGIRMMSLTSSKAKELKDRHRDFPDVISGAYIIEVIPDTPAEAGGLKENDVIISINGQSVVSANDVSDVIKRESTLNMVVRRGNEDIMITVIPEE
Design: key: below the threshold = too weak to quantify, mostly under pKd 3.1 to 4

pKd	Binder
below the threshold	QKASRNESTF [POLR1D, P0DPB6]
4.18	DSEEELPTRL [GRK6, P43250]
4.15	MQILSKPEFI [NPSR1, Q6W5P4]

The binders below were run against T2, DLG3_1, Q92796 (assay: holdup assay). Settings: plain residues with an end cap or a label only (N-terminal biotin on a linker: ado-ado).
Design: key: below the threshold = too weak to quantify, mostly under pKd 3.1 to 4

pKd	Binder
below the threshold	QKASRNESTF [POLR1D, P0DPB6]
below the threshold	DSEEELPTRL [GRK6, P43250]
below the threshold	MQILSKPEFI [NPSR1, Q6W5P4]

What follows are binders tested against T3, DVL3, Q92997 (assay: holdup assay). Settings: plain residues with an end cap or a label only (N-terminal biotin on a linker: ado-ado).
Design: key: below the threshold = too weak to quantify, mostly under pKd 3.1 to 4

pKd	Binder
below the threshold	QKASRNESTF [POLR1D, P0DPB6]
below the threshold	DSEEELPTRL [GRK6, P43250]
3.61	MQILSKPEFI [NPSR1, Q6W5P4]

Each binder was assayed against T4, SNTB1, Q13884 (assay: holdup assay). Settings: plain residues with an end cap or a label only (N-terminal biotin on a linker: ado-ado).
Design: key: below the threshold = too weak to quantify, mostly under pKd 3.1 to 4

pKd	Binder
below the threshold	QKASRNESTF [POLR1D, P0DPB6]
below the threshold	DSEEELPTRL [GRK6, P43250]
below the threshold	MQILSKPEFI [NPSR1, Q6W5P4]

Each binder was assayed against T5, SYNJ2BP, P57105 (assay: holdup assay). Settings: plain residues with an end cap or a label only (N-terminal biotin on a linker: ado-ado).
Design: key: below the threshold = too weak to quantify, mostly under pKd 3.1 to 4

pKd	Binder
below the threshold	QKASRNESTF [POLR1D, P0DPB6]
3.5	DSEEELPTRL [GRK6, P43250]
below the threshold	MQILSKPEFI [NPSR1, Q6W5P4]

The binders below were run against MAST1, Q9Y2H9 (assay: holdup assay). Settings: plain residues with an end cap or a label only (N-terminal biotin on a linker: ado-ado).
Sequence of MAST1, Q9Y2H9 (Q9Y2H9 962-1065): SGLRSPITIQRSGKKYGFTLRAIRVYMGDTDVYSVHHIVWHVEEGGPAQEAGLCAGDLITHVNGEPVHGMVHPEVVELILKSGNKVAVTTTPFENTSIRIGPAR
Design: key: below the threshold = too weak to quantify, mostly under pKd 3.1 to 4

pKd	Binder
4.08	QKASRNESTF [POLR1D, P0DPB6]
4.19	DSEEELPTRL [GRK6, P43250]
3.68	MQILSKPEFI [NPSR1, Q6W5P4]

Each binder was assayed against T6, TJP3_3, O95049 (assay: holdup assay). Settings: plain residues with an end cap or a label only (N-terminal biotin on a linker: ado-ado).
Design: key: below the threshold = too weak to quantify, mostly under pKd 3.1 to 4

pKd	Binder
below the threshold	QKASRNESTF [POLR1D, P0DPB6]
below the threshold	DSEEELPTRL [GRK6, P43250]
below the threshold	MQILSKPEFI [NPSR1, Q6W5P4]

The binders below were run against T7, APBA2_1, Q99767 (assay: holdup assay). Settings: plain residues with an end cap or a label only (N-terminal biotin on a linker: ado-ado).
Design: key: below the threshold = too weak to quantify, mostly under pKd 3.1 to 4

pKd	Binder
below the threshold	QKASRNESTF [POLR1D, P0DPB6]
below the threshold	DSEEELPTRL [GRK6, P43250]
3.74	MQILSKPEFI [NPSR1, Q6W5P4]

What follows are binders tested against GRIP2_4, Q9C0E4 (assay: holdup assay). Settings: plain residues with an end cap or a label only (N-terminal biotin on a linker: ado-ado).
Sequence of GRIP2_4, Q9C0E4 (Q9C0E4 446-548): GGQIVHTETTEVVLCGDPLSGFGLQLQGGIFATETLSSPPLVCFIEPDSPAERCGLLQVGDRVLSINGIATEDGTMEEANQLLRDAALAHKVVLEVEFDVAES
Design: key: below the threshold = too weak to quantify, mostly under pKd 3.1 to 4

pKd	Binder
below the threshold	QKASRNESTF [POLR1D, P0DPB6]
below the threshold	DSEEELPTRL [GRK6, P43250]
below the threshold	MQILSKPEFI [NPSR1, Q6W5P4]

These binders were tested against PDLIM1, O00151 (assay: holdup assay). Settings: plain residues with an end cap or a label only (N-terminal biotin on a linker: ado-ado).
Sequence of PDLIM1, O00151 (O00151 1-87): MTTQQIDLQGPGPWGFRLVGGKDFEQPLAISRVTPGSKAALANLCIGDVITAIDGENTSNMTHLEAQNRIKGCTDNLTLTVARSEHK
Design: key: below the threshold = too weak to quantify, mostly under pKd 3.1 to 4

pKd	Binder
below the threshold	QKASRNESTF [POLR1D, P0DPB6]
below the threshold	DSEEELPTRL [GRK6, P43250]
below the threshold	MQILSKPEFI [NPSR1, Q6W5P4]

What follows are binders tested against T8, GRIP1_5, Q9Y3R0 (assay: holdup assay). Settings: plain residues with an end cap or a label only (N-terminal biotin on a linker: ado-ado).
Design: key: below the threshold = too weak to quantify, mostly under pKd 3.1 to 4

pKd	Binder
below the threshold	QKASRNESTF [POLR1D, P0DPB6]
below the threshold	DSEEELPTRL [GRK6, P43250]
below the threshold	MQILSKPEFI [NPSR1, Q6W5P4]

The binders below were run against T9, FRMPD1, Q5SYB0 (assay: holdup assay). Settings: plain residues with an end cap or a label only (N-terminal biotin on a linker: ado-ado).
Design: key: below the threshold = too weak to quantify, mostly under pKd 3.1 to 4

pKd	Binder
below the threshold	QKASRNESTF [POLR1D, P0DPB6]
below the threshold	DSEEELPTRL [GRK6, P43250]
below the threshold	MQILSKPEFI [NPSR1, Q6W5P4]

What follows are binders tested against T10, APBA3_1, O96018 (assay: holdup assay). Settings: plain residues with an end cap or a label only (N-terminal biotin on a linker: ado-ado).
Design: key: below the threshold = too weak to quantify, mostly under pKd 3.1 to 4

pKd	Binder
below the threshold	QKASRNESTF [POLR1D, P0DPB6]
below the threshold	DSEEELPTRL [GRK6, P43250]
below the threshold	MQILSKPEFI [NPSR1, Q6W5P4]

What follows are binders tested against T11, ARHGAP21, Q5T5U3 (assay: holdup assay). Settings: plain residues with an end cap or a label only (N-terminal biotin on a linker: ado-ado).
Design: key: below the threshold = too weak to quantify, mostly under pKd 3.1 to 4

pKd	Binder
below the threshold	QKASRNESTF [POLR1D, P0DPB6]
4.22	DSEEELPTRL [GRK6, P43250]
below the threshold	MQILSKPEFI [NPSR1, Q6W5P4]

The binders below were run against T12, PDZD7_3, Q9H5P4 (assay: holdup assay). Settings: plain residues with an end cap or a label only (N-terminal biotin on a linker: ado-ado).
Design: key: below the threshold = too weak to quantify, mostly under pKd 3.1 to 4

pKd	Binder
3.71	QKASRNESTF [POLR1D, P0DPB6]
4.18	DSEEELPTRL [GRK6, P43250]
below the threshold	MQILSKPEFI [NPSR1, Q6W5P4]

These binders were tested against T13, DLG3_2, Q92796 (assay: holdup assay). Settings: plain residues with an end cap or a label only (N-terminal biotin on a linker: ado-ado).
Design: key: below the threshold = too weak to quantify, mostly under pKd 3.1 to 4

pKd	Binder
4.23	QKASRNESTF [POLR1D, P0DPB6]
3.66	DSEEELPTRL [GRK6, P43250]
4.18	MQILSKPEFI [NPSR1, Q6W5P4]

The binders below were run against SCRIB_2, Q14160 (assay: holdup assay). Settings: plain residues with an end cap or a label only (N-terminal biotin on a linker: ado-ado).
Sequence of SCRIB_2, Q14160 (Q14160 857-960): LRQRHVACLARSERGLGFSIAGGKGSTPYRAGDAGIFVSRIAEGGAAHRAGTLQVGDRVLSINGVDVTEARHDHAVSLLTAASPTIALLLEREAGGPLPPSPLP
Design: key: below the threshold = too weak to quantify, mostly under pKd 3.1 to 4

pKd	Binder
below the threshold	QKASRNESTF [POLR1D, P0DPB6]
below the threshold	DSEEELPTRL [GRK6, P43250]
below the threshold	MQILSKPEFI [NPSR1, Q6W5P4]

What follows are binders tested against MAGI2_6, Q86UL8 (assay: holdup assay). Settings: plain residues with an end cap or a label only (N-terminal biotin on a linker: ado-ado).
Sequence of MAGI2_6, Q86UL8 (Q86UL8 1141-1229): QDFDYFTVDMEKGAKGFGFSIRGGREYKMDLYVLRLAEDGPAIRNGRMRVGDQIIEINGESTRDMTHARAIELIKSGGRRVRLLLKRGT
Design: key: below the threshold = too weak to quantify, mostly under pKd 3.1 to 4

pKd	Binder
below the threshold	QKASRNESTF [POLR1D, P0DPB6]
below the threshold	DSEEELPTRL [GRK6, P43250]
below the threshold	MQILSKPEFI [NPSR1, Q6W5P4]

The binders below were run against Inadl_6, Q8NI35 (assay: holdup assay). Settings: plain residues with an end cap or a label only (N-terminal biotin on a linker: ado-ado).
Sequence of Inadl_6, Q8NI35 (Q8NI35 1058-1167): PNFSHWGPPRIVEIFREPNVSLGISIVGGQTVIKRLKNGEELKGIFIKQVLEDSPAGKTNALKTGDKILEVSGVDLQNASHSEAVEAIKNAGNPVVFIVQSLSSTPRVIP
Design: key: below the threshold = too weak to quantify, mostly under pKd 3.1 to 4

pKd	Binder
below the threshold	QKASRNESTF [POLR1D, P0DPB6]
below the threshold	DSEEELPTRL [GRK6, P43250]
below the threshold	MQILSKPEFI [NPSR1, Q6W5P4]

The binders below were run against Inadl_4, Q8NI35 (assay: holdup assay). Settings: plain residues with an end cap or a label only (N-terminal biotin on a linker: ado-ado).
Sequence of Inadl_4, Q8NI35 (Q8NI35 547-651): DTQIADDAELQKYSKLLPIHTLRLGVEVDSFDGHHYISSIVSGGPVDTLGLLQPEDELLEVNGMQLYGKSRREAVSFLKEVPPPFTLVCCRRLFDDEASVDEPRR
Design: key: below the threshold = too weak to quantify, mostly under pKd 3.1 to 4

pKd	Binder
below the threshold	QKASRNESTF [POLR1D, P0DPB6]
below the threshold	DSEEELPTRL [GRK6, P43250]
below the threshold	MQILSKPEFI [NPSR1, Q6W5P4]

The binders below were run against DLG1_2, Q12959 (assay: holdup assay). Settings: plain residues with an end cap or a label only (N-terminal biotin on a linker: ado-ado).
Sequence of DLG1_2, Q12959 (Q12959 314-412): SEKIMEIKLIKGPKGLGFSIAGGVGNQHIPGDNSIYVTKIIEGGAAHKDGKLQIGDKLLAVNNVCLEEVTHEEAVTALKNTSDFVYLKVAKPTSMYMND
Design: key: below the threshold = too weak to quantify, mostly under pKd 3.1 to 4

pKd	Binder
3.64	QKASRNESTF [POLR1D, P0DPB6]
below the threshold	DSEEELPTRL [GRK6, P43250]
below the threshold	MQILSKPEFI [NPSR1, Q6W5P4]
